In paper doi:10.1101/776187 one finds processive run length of DDB^F684I on microtubules, single molecule TIRF and speed of DDB^F684I on microtubules, single molecule TIRF data, which are given here for one molecule.

For assay [1], the target named is dynactin (bovine (purified from bovine brain)).
Assay [2] has as its target human cytoplasmic dynein (recombinant complex of DHC, DIC, DLIC, Tctex, Robl and LC8) (human) (UniProt Q14204).

B1: full-length Drosophila Bicaudal D F684I mutant (Dm BicD/F684I) (natural protein)
chain: MSSASNNGPSADQSVQDLQMEVERLTRELDQVSSASAQSAQYGLSLLEEKSALQQKCEELETLYDNTRHELDITQEALTKFQTSQKVTNKTGIEQEDALLNESAARETSLNLQIFDLENELKQLRHELERVRNERDRMLQENSDFGRDKSDSEADRLRLKSELKDLKFRETRMLSEYSELEEENISLQKQVSSLRSSQVEFEGAKHEIRRLTEEVELLNQQVDELANLKKIAEKQMEEALETLQGEREAKYALKKELDGHLNRESMYHISNLAYSIRSNMEDNASNNSDGEEENLALKRLEADLSTELKSPDGTKCDLFSEIHLNELKKLEKQLESMESEKTHLTANLREAQTSLDKSQNELQNFMSRLALLAAHVDALVQLKKQIDVKEQGKEGGQKKDELEQQLRALISQYANWFTLSAKEIDGLKTDIAELQKGLNYTDATTTLRNEVTNLKNKLLATEQKSLDLQSDVQTLTHISQNAGQSLGSARSTLVALSDDLAQLYHLVCTVNGETPTRVLLDHKTDDMSFENDSLTAIQSQFKSDVFIAKPQIVEDLQGLADSVEIKKYVDTVSDQIKYLKTAVEHTIDMNKHKIRSEGGDALEKVNTEEMEELQEQIVKLKSLLSVKREQIGTLRNVLKSNKQTAEVALTNLKSKYENEKIIVSDTMSKLRNELRLLKEDAATISSLRAMFAARCEEYVTQVDDLNRQLEAAEEEKKTLNQLLRLAVQQKLALTQRLEEMEMDREMRHVRRPMPAQRGTSGKSSFSTRPSSRNPASSNANPF
As for B1, in assay [1], the processive run length of DDB^F684I on microtubules, single molecule TIRF was 3.3 µm and the speed of DDB^F684I on microtubules, single molecule TIRF is 0.43 µm/s. Further, in assay [2], the processive run length of DDB^F684I on microtubules, single molecule TIRF came out at 3.3 µm and the speed of DDB^F684I on microtubules, single molecule TIRF amounted to 0.43 µm/s.
